Biological target: T1, human LAG-3 (cell surface) (human, UniProt P18627 23-525)
T1 construct: whole, on cells; also called CHO-human LAG-3
T1 sequence (looked up): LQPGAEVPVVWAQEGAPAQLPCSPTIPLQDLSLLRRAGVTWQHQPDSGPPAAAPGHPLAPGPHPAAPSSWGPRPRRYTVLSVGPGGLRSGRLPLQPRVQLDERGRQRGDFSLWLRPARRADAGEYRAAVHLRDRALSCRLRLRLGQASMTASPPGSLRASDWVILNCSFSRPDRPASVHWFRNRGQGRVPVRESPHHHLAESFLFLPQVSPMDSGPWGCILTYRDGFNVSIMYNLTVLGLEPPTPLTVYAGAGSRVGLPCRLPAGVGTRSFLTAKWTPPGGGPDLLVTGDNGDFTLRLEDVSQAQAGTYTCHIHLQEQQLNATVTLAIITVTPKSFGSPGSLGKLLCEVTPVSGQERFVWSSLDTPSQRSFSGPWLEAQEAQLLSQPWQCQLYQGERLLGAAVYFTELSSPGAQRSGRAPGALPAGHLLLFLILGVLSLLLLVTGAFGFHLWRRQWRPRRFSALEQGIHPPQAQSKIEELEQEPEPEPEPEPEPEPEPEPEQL
Assay: flow cytometry, CHO cells expressing human LAG-3
Procedure: To test the ability of the antibodies to bind to cell surface LAG-3 protein, the antibodies were incubated with a CHO cell line that had been transfected to express human LAG-3 on the cell surface. The 25F7, 26H10, 25E3, 8B7, 11F2 and 17E5 monoclonal antibodies were serially diluted with cold lx PFAE buffer (1×PBS+2% FBS, 0.02% sodium azide, 2 mM Na EDTA). For the binding reaction, 50 μl of diluted antibody solution was added to a 50 μl cell suspension containing 2×10⁵ cells and the mixture was incubated on ice for 30 minutes. The cells were then washed two times with 1×PFAE buffer. A 1:100 dilution of FITC-labeled goat anti-human kappa light chain antibody (Bethyl Laboratories, Inc., Cat. # A80-115F) was added and the mixture was incubated for 30 minutes at 4° C., followed by washing twice with cold 1×PFAE buffer. After the final wash, 150 μl of cold 1×PFAE containing 10 μg/mL propidium iodide (Roche Applied Science, Cat #1 348 639) was added to each solution and analysis of antibody binding was carried out by flow cytometry using a FACScalibur flow cytometer (BD Bioscience).

B1: 11F2 human monoclonal antibody (antibody, IgG2, V domains shown)
VH: QVQLVQSGAEVKKPGASVKVSCKVSGYTLTEVSMHWVRQAPGKGLEWMGGFDPEDGETIYAQKFQGRVTMTEDTSTDTAYMELSSLRSEDTAVYYCATAFVVVVAASDYWGQGTLVTVSS
VL: EIVLTQSPATLSLSPGERATLSCRASQSVSSYLAWYQQKPGQAPRLLIYDASNRATGIPARFSGSGSGTDFTLTISSLEPEDFAVYYCQQRSNWPWTFGQGTKVEIK
Which EC50 does the source give for B1 here?
The EC50 was 15.1 nM.
